Assay results published in doi:10.1101/2024.04.26.591336.

Target: NOTCH2^ΔERA-TurboID (human)
Assay: proximity labelling

Log2FC NICD2RA-vs-NICD2: -2.03 Log2FC | percent of the NOTCH2 recovered, NICD2RA against NICD2: 13%
Substance: endogenous human NOTCH2 (from UniProt Q04721 26-2471) (natural protein)
